# Test results: paper PMC10975569
# Tests used:
# [1] = molecular target: heterolysin A (H. irregulare TC 32-1)
# [2] = molecular target: T1, ostreolysin A6 (P. ostreatus) (UniProt P83467)
# T1 sequence: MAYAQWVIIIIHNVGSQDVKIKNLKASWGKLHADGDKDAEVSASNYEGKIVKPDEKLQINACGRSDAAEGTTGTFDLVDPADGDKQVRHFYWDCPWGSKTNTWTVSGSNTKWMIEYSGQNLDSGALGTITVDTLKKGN
molecule,measurement,setting,value
nudolysin B (Δ30NudB) (domain or fragment),"time of 100% hemolysis of bovine red blood cells, pH 6.0; NudA 1, 0.1 and 0.01 µM, NudA:NudB 10:1 (0.7 to 48.8 min)",nudolysin A (L. nuda),48.8 min
same,"time of 100% hemolysis of bovine red blood cells, pH 7.0; NudA 1 and 0.1 µM, NudA:NudB 10:1 (0.7 to 11.1 min); at 0.01 µM 100% hemolysis did not occur",nudolysin A (L. nuda),11.1 min
same,"time of 100% hemolysis of bovine red blood cells, pH 8.0; NudA 1 µM, NudA:NudB 10:1; at 0.1 and 0.01 µM 100% hemolysis did not occur",nudolysin A (L. nuda),2 min
pleurotolysin B (Δ48PlyB) (domain or fragment) SQAGDTLNDVIQDPTRRNKLINDNNLLKGIIMGRDGPVPSSRELIVRPDTLRAIINNRATIETTTMEAEFTETLMESNYNSASVKVSAPFITANSEYSESSSFKNTETEKSMYTSSRYLFPQGRIDFTTPDSGFDDVIKLSPQFTSGVQAALAKATGTEKREALQNLFQEYGHVFRTKVHIGGVLSAHTMETFSRSENETEVKQDVKAGLEGAVKGWGGGATAGHGNTQGTITTSQNRKLNVKYIVNGGDYTKIQNTEEWVASTNQSEHWRVIEVTEVTAVADLLPQPIRGQVKDLLKPLLGKWVDVEKVPGLESLPVSVYRPKGAIPAGWFWLGDTADASKALLVKPTLPARSGRNPALTSLHQGSGMTEQPFVDLPQYQYLSTYFGSFAHDTPPGSTLRGLRPDHVLPGRYEMHGDTISTAVYVTRPVDVPFPEDECFDLKSLVRVKLPGSGNPPKPRSALKKSMVLFDSGEK,"time of 100% hemolysis of bovine red blood cells, pH 6.0; HetA 1, 0.1 and 0.01 µM, HetA:PlyB 10:1 (0.7 to 9.8 min)",[1],9.8 min
same,"time of 100% hemolysis of bovine red blood cells, pH 7.0; HetA 1 and 0.1 µM, HetA:PlyB 10:1 (1.3 to 8.2 min); at 0.01 µM 100% hemolysis did not occur",[1],8.2 min
same,"time of 100% hemolysis of bovine red blood cells, pH 8.0; HetA 1 and 0.1 µM, HetA:PlyB 10:1 (0.7 to 5.3 min); at 0.01 µM 100% hemolysis did not occur",[1],5.3 min
same,"time of 100% hemolysis of bovine red blood cells, pH 6.0; OlyA6 1, 0.1 and 0.01 µM, OlyA6:PlyB 10:1 (0.7 to 2.7 min)",[2],2.7 min
same,"time of 100% hemolysis of bovine red blood cells, pH 7.0; OlyA6 1, 0.1 and 0.01 µM, OlyA6:PlyB 10:1 (0.7 to 20.6 min)",[2],20.6 min
same,"time of 100% hemolysis of bovine red blood cells, pH 8.0; OlyA6 1, 0.1 and 0.01 µM, OlyA6:PlyB 10:1 (0.7 to 26.4 min)",[2],26.4 min
